Results from PMC6975927.

Assays:
[1] = molecular target: SCF^FBW7 (CUL1-RBX1 with FBW7(263-C-terminus)-SKP1 complex) (human) (UniProt Q13616)
[2] = molecular target: SCF^βTRCP (CUL1-RBX1 with full-length βTRCP2 (FBW11)-SKP1 complex) (human) (UniProt Q13616)

UBE2D3, sequence (P61077 whole entry): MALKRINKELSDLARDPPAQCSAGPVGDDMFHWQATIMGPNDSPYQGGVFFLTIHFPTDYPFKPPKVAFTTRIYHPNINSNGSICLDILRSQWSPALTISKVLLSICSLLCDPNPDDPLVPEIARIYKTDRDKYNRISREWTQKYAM

KM of UBE2D3 in multi-turnover ubiquitylation of 32P-labeled Cyclin E peptide by SCF^FBW7 [1]	KM of UBE2D3 in multi-turnover ubiquitylation of 32P-labeled β-Catenin peptide by SCF^βTRCP [2]	KM of UBE2G1 in multi-turnover ubiquitylation of 32P-labeled mono-ubiquitylated Cyclin E peptide (Ub-Cyclin E) by SCF^FBW7 [1]	Molecule
1.67 µM	0.488 µM		UBE2D3 (from UniProt P61077 1-147) (enzyme)
		1.3 µM	UBE2G1 (enzyme) MTELQSALLLRRQLAELNKNPVEGFSAGLIDDNDLYRWEVLIIGPPDTLYEGGVFKAHLTFPKDYPLRPPKMKFITEIWHPNVDKNGDVCISILHEPGEDKYGYEKPEERWLPIHTVETIMISVISMLADPNGDSPANVDAAKEWREDRNGEFKRKVARCVRKSQETAFE
